Paper PMC8527181

Columns and labels:
[1] = target: Ptr4CL3-6 × His, recombinant (Populus trichocarpa); test: cross-linking; recombinant Ptr4CL and PtrHCT, 200 nM each in PBS, DSP at 20-fold molar excess, room temperature 5 min, SDS-PAGE, western blot with Ptr4CL3 and PtrHCT1 antibodies
[2] = target: Ptr4CL5-6 × His, recombinant (Populus trichocarpa); test: as above
[3] = target: Ptr4CL (endogenous in SDX extract, member not told); test: cross-linking; crude SDX extract (25 mM sodium phosphate buffer, pH 7.4) cross-linked with DSP, SDS-PAGE, western blot with PtrHCT1 and PtrHCT6 specific antibodies

Substance | stoichiometry N (PtrHCT per Ptr4CL) [1] | stoichiometry N (PtrHCT per Ptr4CL) [2] | stoichiometry N (PtrHCT per Ptr4CL) [3]
PtrHCT6-6 × His, recombinant (enzyme) | 2 |  | 
PtrHCT1-6 × His, recombinant (enzyme) | 2 | 2 | 
PtrHCT1, endogenous in SDX protein extract (enzyme) |  |  | 2
PtrHCT6, endogenous in SDX protein extract (enzyme) |  |  | 2
